Data reported in patent publication US20200010567A1 (NEURIMMUNE, published 2020).

B1: NI-308.28G1 (antibody, V domains shown)
VH: QVQLQESGPRLVKPSETLSLTCTVAGGSVNSYYWTWIQQSPGKGLEWLGRIYIAGRTNYNPSLTSRIALSVDTSRNQLSLKLTSVTAADTAIYYCARWGAESGDYYYGVDVWGPGTLVTVSS
VL: EIVMTQSPLSLPVTPGEPASISCKSSEGLLHSNGYTYLDWYLQKPGQAPQLLIFLASNRAAGVPDRFSGSGSGTDFTLKISRVEAEDVGVYYCMQAIQSPWTFGPGTKVEIK
notes: Recombinant complete human IgG1, kappa
B2: NI-308.18F7 (antibody, V domains shown)
VH: QVQLQESGPGLVKPSETLSVTCTVSGGSINDYYWNWIRQPAGKGLEWIGRIYASGTINYNPSLQSRVTMSIDTSKNQFSLDLISVSAADTAVYYCARWGQVVGDYYYGMDVWGQGTTVTVSS
VL: EIVLTQSPLSLSVTPGEPASISCKSSQSLQHTNGYNYLDWYLLKPGQSPQLLIFLTSNRASGVPDRFSGSGSGTNFTLKISRVEAEDVGVYYCMEGIQLWTFGQGTKLEIK
notes: as for B1
B3: NI-308.5G2 (antibody, V domains shown)
VH: EVQLVQSGADLRNPGASVTVSCTASGYHFADNAINWLRQAPGQRLEWMGWINIYSGNTKYSQNFQGRVTFTRNTSASTAFMHLRSLRSEDTAVYFCARDPDSSGYYLPYFDYWGQGTLVTVSS
VL: DIQLTQSPDSLTLSLGERATINCKSSQSVFYNSNNKNYLAWYQQKPGQPPKLLMYWASTRESGVTDRFSGSGSGTDFTLTITNLQAEDVAVYYCQQFYSSPLTFGGGTKVEIK
notes: as for B1
B4: NI-308.46E9 (antibody, V domains shown)
VH: QVQLQESGPGLVKPSETLSLTCTVSGASISGSTYYWGWIRQPPGKGLEYIGRIYYSGSTYYNPSLKSRATISVDTSKNQLSLTLSSVTAADTAVYYCVRPFYAGSGNSPFDYWGQGTLVTVSS
VL: CEIVLTQSPATVSVSPGERATLSCRASQSVSTNLAWYQQKPGQPPRLLIYGASTRATGIPARFSGSGSGAEFTLTISSLQSEDFVVYYCQQYNNWPPAFGGGTKVEIK
notes: as for B1
B5: NI-308.15O7 (antibody, V domains shown)
VH: QVQLVESGGGVVQPGRSLRLSCAASGFTFSNHAMHWVRQAPGKGLEWVAVISYDGENTYYADSIEGRFTISRDNFKNTLFLQMYSLTADDTAMYFCARGGRRGHFTSYYLDYWGQGTLVTVSS
VL: CDIQMTQSPSSLSASVGDRVTITCRASQNIDKYLNWYQQIPGKAPKLLIYAASSLHSGVPSRFSGSGSGTDFSLTISSLQPEDFAIYYCQQSYSSFRTFGQGTKLEIK

Columns and labels:
GA5: H-(GA)5HHHHHH-NH2 = target: T1, GA5: H-(GA)5HHHHHH-NH2; experiment: indirect ELISA, coated His-tagged peptide
T1 peptide: H-GAGAGAGAGAHHHHHH-NH2
Text: In brief, dipeptide repeat proteins were synthesized and purified by Schafer-N (Copenhagen, Denmark): GA₂₀: H-(GA)₂₀HHHHHH-NH₂; GA₁₀: H-(GA)₁₀HHHHHH-NH₂; GA₆: H-(GA)₆HHHHHH-NH₂; GA₅: H-(GA)₅HHHHHH-NH₂; GA₄: H-(GA)₄HHHHHH-NH₂; GA₃: H-(GA)₃HHHHHH-NH₂; GA₂: H-(GA)₂HHHHHH-NH₂; GP₂₀: H-(GP)₂₀HHHHHH-NH₂; GP₁₀: H-(GP)₁₀HHHHHH-NH₂; GP₆: H-(GP)₆HHHHHH-NH₂; GP₅: H-(GP)₅HHHHHH-NH₂; GP₄: H-(GP)₄HHHHHH-NH₂; GP₃: H-(GP)₃HHHHHH-NH₂; GP₂: H-(GP)₂HHHHHH-NH₂. GR₂₀: H-(GR)₂₀HHHHHH-NH₂; GR₁₀: H-(GR)₁₀HHHHHH-NH₂; GR₆: H-(GR)₆HHHHHH-NH₂; GR₅: H-(GR)₅HHHHHH-NH₂; GR₄: H-(GR)₄HHHHHH-NH₂; GR₃: H-(GR)₃HHHHHH-NH₂; GR₂: H-(GR)₂HHHHHH-NH₂; PA₂₀: H-(PA)₂₀HHHHHH-NH₂; PA₁₀: H-(PA)₁₀HHHHHH-NH₂; PA₆: H-(PA)₆HHHHHH-NH₂; PA₅: H-(PA)₅HHHHHH-NH₂; PA₄: H-(PA)₄HHHHHH-NH₂; PA₃: H-(PA)₃HHHHHH-NH₂; PA₂: H-(PA)₂HHHHHH-NH₂; PR₂₀: H-(PR)₂₀HHHHHH-NH₂; PR₁₀: H-(PR)₁₀HHHHHH-NH₂; PR₆: H-(PR)₆HHHHHH-NH₂; PR₅: H-(PR)₅HHHHHH-NH₂; PR₄: H-(PR)₄HHHHHH-NH₂; PR₃: H-(PR)₃HHHHHH-NH₂; PR₂: H-(PR)₂HHHHHH-NH₂. 96-well microplates (Corning Incorporated, Corning, USA) were coated with dipeptide repeat protein peptides at a concentration of 50 μg/ml in coating buffer (15 mM Na₂CO₃, 35 mM NaHCO₃, pH 9.42). Non-specific binding sites were blocked for 1 h at room temperature with PBS/0.1% Tween®-20 containing 2% BSA (Sigma-Aldrich, Buchs, Switzerland). Primary antibodies were diluted to the indicated concentrations and incubated 1 h at room temperature, followed by incubation with a donkey anti-human IgG Fcγ-specific antibody conjugated with HRP (Jackson ImmunoResearch Laboratories, Inc., West Grove, USA). Binding was determined by measurement of HRP activity in a standard colorimetric assay. EC₅₀ values were estimated by non-linear regression using GraphPad Prism software (San Diego, USA).

[1] = target: T2, monomeric C9orf72 (GA)20 DPR protein peptide preparation (C-terminal amide); experiment: sandwich ELISA, preparation captured by anti-His antibody
T2 construct: also called monomeric (GA)20
T2 peptide: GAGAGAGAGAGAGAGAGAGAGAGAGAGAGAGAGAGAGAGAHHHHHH
Method: (§1) 96-well microplates (Corning Incorporated, Corning, USA) were coated with monoclonal mouse anti-His tag antibody (Takara Bio Europe/Clontech, Saint-Germain-en-Laye, France) at a concentration of 10 μg/ml in coating buffer (15 mM Na₂CO₃, 35 mM NaHCO₃, pH 9.42) overnight at 4° C. Non-specific binding sites were blocked for 1 h at room temperature with PBS/0.1% Tween®-20 containing 2% BSA (Sigma-Aldrich, Buchs, Switzerland). After a washing step, his-tagged (GA)₂₀ DPR protein peptide preparations at equal concentration of 5 μM in PBS (pH 7.4) were added for target-trapping by the anti-His tag antibody for 1 h at room temperature. […] Antibody binding to DPR protein peptides was detected by a donkey anti-human IgG Fcγ-specific antibody conjugated with HRP at 1:5000 dilution (Jackson ImmunoResearch Laboratories, Inc., West Grove, USA) for 1 h at RT. Binding was determined by measurement of HRP activity in a standard colorimetric assay. EC₅₀ values were estimated by non-linear regression using GraphPad Prism software (San Diego, USA).

[2] = target: T3, aggregated C9orf72 (GA)20 DPR protein peptide preparation (C-terminal amide); experiment: as above
T3 construct: also called aggregated (GA)20; amyloid-fibril like aggregated (GA)20
T3 peptide: T2 peptide
Method: as §1

[3] = target: T4, BSA-coupled (GR)15 DPR protein peptide (bovine, UniProt P02769 25-607, conjugated via a bifunctional linker (SMCC) to bovine serum albumin); experiment: Western blot of BSA-coupled peptides
T4 construct: also called BSA-(GR)15
T4 sequence (peptide, as listed by the source limits assumed, chain 1 of 2): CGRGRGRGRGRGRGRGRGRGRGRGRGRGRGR
T4 sequence (P02769 25-607 limits assumed, chain 2 of 2): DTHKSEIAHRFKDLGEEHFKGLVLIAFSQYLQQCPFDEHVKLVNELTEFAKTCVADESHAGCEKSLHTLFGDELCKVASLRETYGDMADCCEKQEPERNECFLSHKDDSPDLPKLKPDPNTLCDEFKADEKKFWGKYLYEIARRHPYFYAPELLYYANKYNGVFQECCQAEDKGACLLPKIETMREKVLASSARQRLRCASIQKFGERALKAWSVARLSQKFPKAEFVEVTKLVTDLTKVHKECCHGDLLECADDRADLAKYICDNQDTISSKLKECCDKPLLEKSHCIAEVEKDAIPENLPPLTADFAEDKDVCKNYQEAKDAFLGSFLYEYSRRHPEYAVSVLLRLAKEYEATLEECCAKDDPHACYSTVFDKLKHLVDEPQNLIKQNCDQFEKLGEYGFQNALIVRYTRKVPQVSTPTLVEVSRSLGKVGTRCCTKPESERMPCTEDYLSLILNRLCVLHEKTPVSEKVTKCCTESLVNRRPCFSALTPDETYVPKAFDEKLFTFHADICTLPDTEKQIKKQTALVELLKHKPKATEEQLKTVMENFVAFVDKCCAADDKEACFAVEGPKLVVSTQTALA
Method: (§2) Resolved proteins were then electroblotted (Novex® Semi-Dry Blotter, 1 h, 25V) on methanol-activated PVDF membranes (Immobilon®-P Transfer Membrane, Merck & Cie, Schaffhausen, Switzerland) by the use of Novex® NuPAGE® transfer buffer 2× (Life Technologies Europe B.V., Zug, Switzerland). Non-specific binding sites were blocked overnight at 4° C. (or alternatively for 1 h at room temperature) with PBS/0.1% Tween®-20 containing 2% BSA (Sigma-Aldrich, Buchs, Switzerland) (PBST). […] Membranes were washed three times in PBST for 15 min at RT and then incubated with a donkey anti-human IgG Fcγ-specific antibody conjugated with HRP (1:20000 or 1:10000 dilution, Jackson ImmunoResearch Laboratories, Inc., West Grove, USA) for 1 h at room temperature. Antibody binding was determined by membrane development using ECL and ImageQuant 350 detection (GE Healthcare, Otelfingen, Switzerland).
(§3) The binding specificity of the human-derived antibodies to BSA-coupled C9orf72 dipeptide repeat proteins (GA)₁₅, (GP)₁₅, (GR)₁₅, (PA)₁₅ and (PR)₁₅ was determined by Western blot analysis.

[4] = target: T5, BSA-coupled (PA)15 DPR protein peptide (bovine, UniProt P02769 25-607, conjugated via a bifunctional linker (SMCC) to bovine serum albumin); experiment: Western blot of BSA-coupled peptides
T5 construct: also called BSA-(PA)15
T5 sequence (peptide, as listed by the source limits assumed, chain 1 of 2): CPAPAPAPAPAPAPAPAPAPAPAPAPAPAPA
T5 sequence (P02769 25-607 limits assumed, chain 2 of 2): as the sequence (P02769 25-607 limits assumed, chain 2 of 2) above
Method: as §2, §3

[5] = target: T6, BSA-coupled (PR)15 DPR protein peptide (bovine, conjugated via a bifunctional linker (SMCC) to bovine serum albumin); experiment: Western blot of BSA-coupled peptides
T6 construct: also called BSA-(PR)15
T6 sequence (peptide, as listed by the source limits assumed, chain 1 of 2): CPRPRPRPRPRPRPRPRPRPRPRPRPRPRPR
T6 sequence (P02769 25-607 limits assumed, chain 2 of 2): as the sequence (P02769 25-607 limits assumed, chain 2 of 2) above
Method: as §2, §3

Binder	EC50 (GA5: H-(GA)5HHHHHH-NH2)	EC50 [1]	EC50 [2]	binding result [3]	binding result [4]	binding result [5]
B1	> 200 nM					
B2		0.64 nM	2.9 nM			
B3				no binding	no binding	no binding
B4				no binding	no binding	no binding
B5	> 150 nM	6.3 nM	8.1 nM			
